Measurements reported in patent US20260028389A1 (BIOCRYST PHARMACEUTICALS, published 2026).
Numbering of substitutions follows the chain as printed. In names and notes the source's numbering stands.

B1: Spink9-112.K62G.Fc (SEQ ID NO: 56) (Fc fusion)
chain: IECAKQTKQMVDCSHYKKLPPEQELYCTREYDPICGSDGKTYGNDCFFCSKVKKTDGTLKFVHFGKCEPKSCDKTHTCPPCPAPEAAGGPSVFLFPPKPKDTLMISRTPEVTCVVVDVSHEDPEVKFNWYVDGVEVHNAKTKPREEQYNSTYRVVSVLTVLHQDWLNGKEYKCKVSNKALPAPIEKTISKAKGQPREPQVYTLPPSREEMTKNQVSLTCLVKGFYPSDIAVEWESNGQPENNYKTTPPVLDSDGSFFLYSKLTVDKSRWQQGNVFSCSVLHEALHSHYTQKSLSLSPGK
notes: Mutant SPINK9 domain fused directly to a C-terminal IgG Fc
B2: Spink9-236.Fc (SEQ ID NO: 60) (Fc fusion)
chain: B1 chain with E24Q, Y26M, G43K
notes: as for B1
B3: Spink9-183.Fc (SEQ ID NO: 57) (Fc fusion)
chain: B1 chain with E22Q, E24Q, L25A, E30D, G43K
notes: as for B1
B4: Spink9-186.Fc (SEQ ID NO: 58) (Fc fusion)
chain: B1 chain with E22A, E24L, L25I, R29K, G43K
notes: as for B1
B5: Spink9-30.Fc (SEQ ID NO: 55) (Fc fusion)
chain: B1 chain with E24V, L25S, Y26W, G43K
notes: as for B1
B6: SPINK9-112.2K62G.Fc (SEQ ID NO: 76) (Fc fusion)
chain: B1 chain with M104Y, S106T, T108E, L280M, S286N
notes: as for B1
B7: Spink9 WT (Fc fusion)
chain: IECAKQTKQMVDCSHYKKLPPGQQRFCHHMYDPICGSDGKTYKNDCFFCSKVKKTDGTLKFVHFGKC
notes: not shown: The C-terminal IgG Fc fragment of the wild-type fusion

The molecules below were run against T1, recombinant human KLK5 C-6His (Novoprotein, Catalog No. C415) (human, UniProt Q9Y337 23-293) (assay: ELISA on captured KLK5 C-6His; binder incubated in human serum, day 0).
T1 construct: Bought protein; also called KLK5 protein (Novoprotein); not shown: C-terminal 6xHis tag ('C-6His')

Compared with B1, B2 is 2-fold lower in EC50: 0.1 nM for the first, 0.05 nM for the second. The second is the more potent here.

B3 and B4 are within 1.5-fold of each other in EC50: 0.07 nM for the first, 0.09 nM for the second.

With B5 the EC50 was 0.08 nM.

What follows are molecules tested against T1, recombinant human KLK5 C-6His … (assay: ELISA on captured KLK5 C-6His; binder incubated in human serum, day 1).

Compared with B1, B2 is 1.8-fold lower in EC50: 0.14 nM for the first, 0.08 nM for the second. The second is the more potent here.

Going from B3 to B4, the EC50 rises from 0.09 nM to 0.16 nM (1.8-fold).

B5 showed an EC50 of 0.1 nM.

What follows are molecules tested against rhKLK7 (human, UniProt P49862 30-253) (assay: cell-based or functional assay).
Sequence of rhKLK7 (P49862 30-253): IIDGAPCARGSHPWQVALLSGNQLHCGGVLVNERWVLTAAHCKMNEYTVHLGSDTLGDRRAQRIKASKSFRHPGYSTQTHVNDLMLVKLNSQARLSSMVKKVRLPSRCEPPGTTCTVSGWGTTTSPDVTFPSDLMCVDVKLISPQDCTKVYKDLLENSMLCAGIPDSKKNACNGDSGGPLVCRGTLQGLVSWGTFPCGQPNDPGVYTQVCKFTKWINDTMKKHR

Going from B1 to B2, the “KLK7 IC50 (nM) pH 7.5 (enzymatic activity)” value (from here on “KLK7 IC50”) rises from 2.4 nM to 43.6 nM.

Compared with B3, B4 is higher in “KLK7 IC50” value: 5.4 nM for the first, 8.3 nM for the second.

B5 was tested, and the “KLK7 IC50” value was 10.8 nM.

Each molecule was assayed against T2, rhKLK14 (human, UniProt Q9P0G3 25-251) (assay: cell-based or functional assay).
T2 sequence (looked up): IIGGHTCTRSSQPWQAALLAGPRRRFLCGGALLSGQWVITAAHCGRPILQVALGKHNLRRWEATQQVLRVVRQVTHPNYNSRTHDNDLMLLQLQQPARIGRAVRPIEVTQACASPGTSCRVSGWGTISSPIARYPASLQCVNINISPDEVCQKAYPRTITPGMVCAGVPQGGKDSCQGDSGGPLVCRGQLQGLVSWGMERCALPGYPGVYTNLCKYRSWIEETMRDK

In the case of B1, the “KLK14 IC50 (nM) pH 8.0 (enzymatic activity)” value is reported as 246 nM.

B2 and B3 are the same in “KLK14, percent inhibition at 316 nM SPINK9 polypeptide, pH 8.0” value: 0% for the first, 0% for the second.

B4 and B5 are the same in “KLK14, percent inhibition at 316 nM SPINK9 polypeptide, pH 8.0” value: 0% for the first, 0% for the second.

What follows are molecules tested against T1, recombinant human KLK5 C-6His … (assay: ELISA, KLK5 C-6His captured by anti-His mAb; binder incubated in human serum, day 7).

B6 gave an EC50 of 0.11 nM.

These molecules were tested against T1, recombinant human KLK5 C-6His … (assay: ELISA on captured KLK5 C-6His; binder incubated in human serum, day 14).

First: B1
Second: B2
The EC50 of the first is 1.5-fold higher: 0.17 nM for the first, 0.11 nM for the second. The second is the more potent here.

First: B3
Second: B4
The EC50 of the first is 2.9-fold lower: 0.1 nM for the first, 0.29 nM for the second.

B5 gave an EC50 of 0.13 nM.

Each molecule was assayed against T1, recombinant human KLK5 C-6His … (assay: ELISA, KLK5 C-6His captured by anti-His mAb; binder incubated in human serum, day 4).

B6 gave an EC50 of 0.08 nM.

Each molecule was assayed against T3, human FcRn (AcrobioSystems; Catalog No: FCM-H5286) (human, UniProt P55899 24-297; P61769 21-119) (assay: SPR Biacore 8K, polypeptide coupled to CM5 chip, human FcRn as analyte, pH 6.0, steady state affinity fit).
T3 construct: Bought protein
T3 sequence (P55899 24-297 limits assumed, chain 1 of 2): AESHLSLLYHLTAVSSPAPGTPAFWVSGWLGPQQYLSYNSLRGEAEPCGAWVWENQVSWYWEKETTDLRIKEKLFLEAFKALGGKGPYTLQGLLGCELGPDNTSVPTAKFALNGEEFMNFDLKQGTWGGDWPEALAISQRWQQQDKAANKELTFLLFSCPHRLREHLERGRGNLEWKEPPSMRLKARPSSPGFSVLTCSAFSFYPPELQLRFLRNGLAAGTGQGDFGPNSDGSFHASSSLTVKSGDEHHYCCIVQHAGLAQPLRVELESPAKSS
T3 sequence (P61769 21-119 limits assumed, chain 2 of 2): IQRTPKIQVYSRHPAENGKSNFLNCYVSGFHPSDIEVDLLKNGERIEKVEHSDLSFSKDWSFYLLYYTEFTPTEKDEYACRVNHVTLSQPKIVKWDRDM

B1 and B2 are within 1.5-fold of each other in Kd: 233 nM for the first, 231 nM for the second.

B3 and B4 are within 1.5-fold of each other in Kd: 222 nM for the first, 232 nM for the second.

B5 and B6 are within 1.5-fold of each other in Kd: 229 nM for the first, 189 nM for the second.

These molecules were tested against T1, recombinant human KLK5 C-6His … (assay: SPR Biacore T200, polypeptide captured by anti-human IgG Fc, KLK5 as analyte, pH 7.4, steady state affinity fit).

B2 and B3 are within 1.5-fold of each other in Kd: 0.0291 nM for the first, 0.0216 nM for the second.

Going from B4 to B5, the Kd rises from 0.0189 nM to 0.0909 nM (4.8-fold). The first binds more tightly here.

With B7 the Kd was 99 nM.

These molecules were tested against T1, recombinant human KLK5 C-6His … (assay: ELISA on captured KLK5 C-6His; binder incubated in human serum, day 4).

B1 and B2 are within 1.5-fold of each other in EC50: 0.16 nM for the first, 0.12 nM for the second.

Going from B3 to B4, the EC50 rises from 0.12 nM to 0.21 nM (1.8-fold). The first is the more potent here.

Molecule B5 has an EC50 of 0.1 nM.

What follows are molecules tested against human FcRn (AcrobioSystems; Catalog No: FCM-H5286) (human) (UniProt P55899) (assay: SPR Biacore 8K, antibody coupled to CM5 chip, human FcRn as analyte, pH 6.0, steady state affinity fit).
Sequence of human FcRn (AcrobioSystems; Catalog No: FCM-H5286) (human) (P55899 24-297 limits assumed, chain 1 of 2): as the sequence (P55899 24-297 limits assumed, chain 1 of 2) above
Sequence of human FcRn (AcrobioSystems; Catalog No: FCM-H5286) (human) (P61769 21-119 limits assumed, chain 2 of 2, further chain): as the sequence (P61769 21-119 limits assumed, chain 2 of 2) above

Rituximab (Roche) (antibody) showed a Kd of 3100 nM.

The molecules below were run against T1, recombinant human KLK5 C-6His … (assay: ELISA, KLK5 C-6His captured by anti-His mAb; binder incubated in human serum, day 1).

Molecule B6 has an EC50 of 0.059 nM.

The molecules below were run against T1, recombinant human KLK5 C-6His … (assay: ELISA, KLK5 C-6His captured by anti-His mAb; binder incubated in human serum, day 0).

B6 showed an EC50 of 0.06 nM.

These molecules were tested against T1, recombinant human KLK5 C-6His … (assay: ELISA on captured KLK5 C-6His; binder incubated in human serum, day 7).

Going from B1 to B2, the EC50 falls from 0.17 nM to 0.1 nM (1.7-fold).

B3 and B4 are within 1.5-fold of each other in EC50: 0.11 nM for the first, 0.12 nM for the second.

In the case of B5, the EC50 is reported as 0.1 nM.

The molecules below were run against KLK5 (UniProt Q9Y337 67-293, limits assumed) (assay: cell-based or functional assay).

Molecule Wild Type Spink9 (SEQ ID NO: 2) has an IC50 of KLK5 enzymatic activity, pH 5.5 of 685 nM.

For Wild Type Spink9 (SEQ ID NO: 2), the IC50 of KLK5 enzymatic activity, pH 7.5 was 80 nM.

Going from B1 to B2, the “KLK5 IC50 nM pH 5.5 (enzymatic activity)” value rises from 0.9 nM to 3.5 nM.

Compared with B3, B4 is higher in “KLK5 IC50 nM pH 5.5 (enzymatic activity)” value: 3 nM for the first, 8.3 nM for the second.

In the case of B5, the “KLK5 IC50 nM pH 5.5 (enzymatic activity)” value is reported as 2.4 nM.

First: B1
Second: B2
The “KLK5 IC50 nM pH 7.5 (enzymatic activity)” value of the first is lower: 1.1 nM for the first, 1.5 nM for the second.

Compared with B3, B4 is higher in “KLK5 IC50 nM pH 7.5 (enzymatic activity)” value: 1.4 nM for the first, 1.9 nM for the second.

In the case of B5, the “KLK5 IC50 nM pH 7.5 (enzymatic activity)” value is reported as 2.2 nM.

The molecules below were run against T1, recombinant human KLK5 C-6His … (assay: ELISA, KLK5 C-6His captured by anti-His mAb; binder incubated in human serum, day 14).

For B6, the EC50 was 0.065 nM.
